For data set [1], the system named is HeLa Kyoto. The data set is described as follows: solubility in G1/S (NP-40 vs SDS abundance) (log2 ratio); higher = more soluble. Particulars: cell cycle stage: G1/S.
Data set [2] deals with HeLa Kyoto. The data set is described as follows: melting temperature (median over replicates), in situ; higher = more thermally stable.
The subject of data set [3] is HeLa Kyoto. The data set is described as follows: solubility change mitosis vs G1/S (difference of NP-40 vs SDS log2 ratios) (log2 ratio difference); higher = more soluble in mitosis.
Data set [4] has as its system HeLa Kyoto. The data set is described as follows: thermal stability score vs G1/S (z-score of summed log2 fold changes over temperatures); higher = more thermally stable than in G1/S.
The mark [5] stands for this setting: cell cycle stage: early G1 (4.5 h after nocodazole release).
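Throughout, for melting temperature (median over replicates), in situ: HeLa Kyoto cells synchronized by double thymidine or nocodazole block, proteins quantified by TMT10plex mass spectrometry, three independent biological replicates.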
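Throughout, for solubility change mitosis vs G1/S (difference of NP-40 vs SDS log2 ratios): synchronized HeLa Kyoto cells (double thymidine block for G1/S, nocodazole release for mitosis), protein amounts in NP-40 versus SDS lysates quantified by mass spectrometry, three biological replicates.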
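Throughout, for solubility in G1/S (NP-40 vs SDS abundance): HeLa Kyoto cells arrested at G1/S by double thymidine block, proteins quantified by TMT10plex mass spectrometry in mild NP-40 versus SDS extracts, three biological replicates.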
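Throughout, for thermal stability score vs G1/S (z-score of summed log2 fold changes over temperatures): synchronized HeLa Kyoto cells, proteins quantified by TMT10plex mass spectrometry, three biological replicates, mitosis taken 0.5 h after nocodazole release, G1/S directly after double thymidine block.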

With “MMAIRELKVCLLGDTGVGKSSIVCRFVQDHFDHNISPTIGASFMTKTVPCGNELHKFLIWDTAGQERFHSLAPMYYRGSAAAVIVYDITKQDSFYTLKKWVKELKEHGPENIVMAIAGNKCDLSDIREVPLKDAKEYAESIGAIVVETSAKNAINIEELFQGISRQIPPLDPHENGNNGTIKVEKPTMQASRRCC [RAB31]”, the “solubility in G1/S (log2)” value in the data set with HeLa Kyoto [1] was -0.166. In addition, the values for the melting temperature in the data set on HeLa Kyoto [2] (cell cycle stage: G1/S) and in the data set on HeLa Kyoto [2] (cell cycle stage: mitosis) were 54.6 °C and 53.9 °C, respectively. In addition, the “solubility change mitosis (log2)” value with HeLa Kyoto [3] amounted to 0.0123. The thermal stability score was -1.38 in the data set with HeLa Kyoto [4] (setting [5]) and -0.537 with HeLa Kyoto [4] (cell cycle stage: mitosis).
With “MMCEVMPTISEAEGPPGGGGGHGSGSPSQPDADSHFEQLMVSMLEERDRLLDTLRETQETLALTQGKLHEVGHERDSLQRQLNTALPQEFAALTKELNVCREQLLEREEEIAELKAERNNTRLLLEHLECLVSRHERSLRMTVVKRQAQSPAGVSSEVEVLKALKSLFEHHKALDEKVRERLRVALERCSLLEEELGATHKELMILKEQNNQKKTLTDGVLDINHEQENTPSTSGKRSSDGSLSHEEDLAKVIELQEIISKQSREQSQMKERLASLSSHVTELEEDLDTARKDLIKSEEMNTKLQRDVREAMAQKEDMEERITTLEKRYLAAQREATSVHDLNDKLENEIANKDSMHRQTEDKNRQLQERLELAEQKLQQTLRKAETLPEVEAELAQRVAALSKAEERHGNIEERLRQMEAQLEEKNQELQRARQREKMNEEHNKRLSDTVDKLLSESNERLQLHLKERMAALEDKNSLLREVESAKKQLEETQHDKDQLVLNIEALRAELDHMRLRGASLHHGRPHLGSVPDFRFPMADGHTDSYSTSAVLRRPQKGRLAALRDEPSKVQTLNEQDWERAQQASVLANVAQAFESDADVSDGEDDRDTLLSSVDLLSPSGQADAHTLAMMLQEQLDAINKEIRLIQEEKENTEQRAEEIESRVGSGSLDNLGRFRSMSSIPPYPASSLASSSPPGSGRSTPRRIPHSPAREVDRLGVMTLLPPSREEVRDDKTTIKCETSPPSSPRALRLDRLHKGALHTVSHEDIRDIRNSTGSQDGPVSNPSSSNSSQDSLHKAPKKKGIKSSIGRLFGKKEKGRPGQTGKEALGQAGVSETDNSSQDALGLSKLGGQAEKNRKLQKKHELLEEARRQGLPFAQWDGPTVVVWLELWVGMPAWYVAACRANVKSGAIMSALSDTEIQREIGISNPLHRLKLRLAIQEIMSLTSPSAPPTSRTTLAYGDMNHEWIGNEWLPSLGLPQYRSYFMECLVDARMLDHLTKKDLRGQLKMVDSFHRNSFQCGIMCLRRLNYDRKELERKREESQSEIKDVLVWSNDRVIRWILSIGLKEYANNLIESGVHGALLALDETFDFSALALLLQIPTQNTQARAVLEREFNNLLVMGTDRRFDEDDDKSFRRAPSWRKKFRPKDIRGLAAGSAETLPANFRVTSSMSSPSMQPKKMQMDGNVSGTQRLDSATVRTYSC [PPFIA1]”, the “solubility in G1/S (log2)” value in the data set with HeLa Kyoto [1] is 0.137. Also, the melting temperature came to 49.8 °C in the data set on HeLa Kyoto [2] (cell cycle stage: G1/S) and 50.2 °C with HeLa Kyoto [2] (cell cycle stage: mitosis). Further, the “solubility change mitosis (log2)” value in the data set on HeLa Kyoto [3] was -0.0196. The thermal stability score came out at 1.52 in the data set with HeLa Kyoto [4] (setting [5]) and 1.91 in the data set with HeLa Kyoto [4] (cell cycle stage: mitosis).
Turning to “MMEESGIETTPPGTPPPNPAGLAATAMSSTPVPLAATSSFSSPNVSSMESFPPLAYSTPQPPLPPVRPSAPLPFVPPPAVPSVPPLVTSMPPPVSPSTAAAFGNPPVSHFPPSTSAPNTLLPAPPSGPPISGFSVGSTYDITRGHAGRAPQTPLMPSFSAPSGTGLLPTPITQQASLTSLAQGTGTTSAITFPEEQEDPRITRGQDEASAGGIWGFIKGVAGNPMVKSVLDKTKHSVESMITTLDPGMAPYIKSGGELDIVVTSNKEVKVAAVRDAFQEVFGLAVVVGEAGQSNIAPQPVGYAAGLKGAQERIDSLRRTGVIHEKQTAVSVENFIAELLPDKWFDIGCLVVEDPVHGIHLETFTQATPVPLEFVQQAQSLTPQDYNLRWSGLLVTVGEVLEKSLLNVSRTDWHMAFTGMSRRQMIYSAARAIAGMYKQRLPPRTV [PRRC1]”, the “solubility in G1/S (log2)” value in the data set on HeLa Kyoto [1] is 0.495. Besides, the melting temperature with HeLa Kyoto [2] (cell cycle stage: G1/S) came out at 58.8 °C; in the data set on HeLa Kyoto [2] (cell cycle stage: mitosis) it was 58 °C. The “solubility change mitosis (log2)” value with HeLa Kyoto [3] is -0.346. The thermal stability score is -1.27 in the data set on HeLa Kyoto [4] (setting [5]) and -1.08 in the data set with HeLa Kyoto [4] (cell cycle stage: mitosis).
“MMEGLDDGPDFLSEEDRGLKAINVDLQSDAALQVDISDALSERDKVKFTVHTKSSLPNFKQNEFSVVRQHEEFIWLHDSFVENEDYAGYIIPPAPPRPDFDASREKLQKLGEGEGSMTKEEFTKMKQELEAEYLAIFKKTVAMHEVFLCRVAAHPILRRDLNFHVFLEYNQDLSVRGKNKKEKLEDFFKNMVKSADGVIVSGVKDVDDFFEHERTFLLEYHNRVKDASAKSDRMTRSHKSAADDYNRIGSSLYALGTQDSTDICKFFLKVSELFDKTRKIEARVSADEDLKLSDLLKYYLRESQAAKDLLYRRSRSLVDYENANKALDKARAKNKDVLQAETSQQLCCQKFEKISESAKQELIDFKTRRVAAFRKNLVELAELELKHAKGNLQLLQNCLAVLNGDT [SNX6]”: the “solubility in G1/S (log2)” value in the data set on HeLa Kyoto [1] was determined as 0.426. The figures for the melting temperature in the data set on HeLa Kyoto [2] (cell cycle stage: G1/S) and in the data set with HeLa Kyoto [2] (cell cycle stage: mitosis) were 51.1 °C and 50.1 °C, respectively. Further, the “solubility change mitosis (log2)” value with HeLa Kyoto [3] was -0.0637. In addition, the values for the thermal stability score in the data set on HeLa Kyoto [4] (setting [5]) and in the data set on HeLa Kyoto [4] (cell cycle stage: mitosis) were 1.82 and 0.524, respectively.
Take “MMPGPRPRKGPQARGQGVAAAKQMGLFMEFGPEDMLLGMDEAEDDEDLEAELLALTGEAQTTGKKPAPKGQAPLPMAHIEKLAADCMRDVEEEEEEEGLEEDAELLTELQEVLGVDEETEPLDGDEVADPGGSEEENGLEDTEPPVQTAVLTASAPAAQAGASQGLHALLEERIHNYREAAASAKEAGEAAKARRCERGLKTLESQLASVRRGRKINEDEIPPPVALGKRPLAPQEPANRSPETDPPAPPALESDNPSQPETSLPGISAQPVSDLDPDPRALLSSRQREYKVAALSAKRAGELDRARELMRIGKRFGAVLEALEKGQPVDLSAMPPAPEDLKPQQASQAPTAPSVIPPAVERVQPVMAPDVPATPVAPTESQTVLDALQQRLNKYREAGIQARSGGDERKARMHERIAKQYQDAIRAHRAGRKVNFAELPVPPGFPPIPGLESTMGVEEDAVAATLAAAEKLASAEDSAPADKDEDEPPGHLQGEPPAQAPVAKKPARPTVPSSQRLPEPRASSSKESPSPSVREQLALLEARKLQYQRAALQAKRSQDLEQAKAYLRVAKWLEAQIIQARSGRPVDLSKVPSPLTDEEGDFILIHHEDLRLSQKAEEVYAQLQKMLLEQQEKCLLFSKQFMHQGNVAETTRFEKLAQDRKKQLEILQLAQAQGLDPPTHHFELKTFQTVRIFSELNSTEMHLIIVRGMNLPAPPGVTPDDLDAFVRFEFHYPNSDQAQKSKTAVVKNTNSPEFDQLFKLNINRNHRGFKRVIQSKGIKFEIFHKGSFFRSDKLVGTAHLKLERLENECEIREIVEVLDGRKPTGGKLEVKVRLREPLSGQDVQMVTENWLVLEPRGL [CC2D1B]”: the “solubility in G1/S (log2)” value in the data set with HeLa Kyoto [1] came out at 0.252. The melting temperature in the data set with HeLa Kyoto [2] (cell cycle stage: G1/S) turned out to be 50.4 °C; in the data set on HeLa Kyoto [2] (cell cycle stage: mitosis) it was 50.3 °C. The “solubility change mitosis (log2)” value with HeLa Kyoto [3] is -0.000596. Besides, the thermal stability score in the data set with HeLa Kyoto [4] (setting [5]) was determined as 0.395; in the data set on HeLa Kyoto [4] (cell cycle stage: mitosis), 0.256.
In the case of “MMRFMLLFSRQGKLRLQKWYLATSDKERKKMVRELMQVVLARKPKMCSFLEWRDLKVVYKRYASLYFCCAIEGQDNELITLELIHRYVELLDKYFGSVCELDIIFNFEKAYFILDEFLMGGDVQDTSKKSVLKAIEQADLLQEEDESPRSVLEEMGLA [AP1S1]”, in the data set on HeLa Kyoto [1], the “solubility in G1/S (log2)” value was -0.154. Further, the melting temperature in the data set with HeLa Kyoto [2] (cell cycle stage: G1/S) came out at 53 °C. The “solubility change mitosis (log2)” value with HeLa Kyoto [3] is -0.0672. The thermal stability score with HeLa Kyoto [4] (setting [5]) is -1.3; in the data set on HeLa Kyoto [4] (cell cycle stage: mitosis), -0.738.
Regarding “MMSDEKNLGVSQKLVSPSRSTSSCSSKQGSRQDSWEVVEGLRGEMNYTQEPPVQKGFLLKKRKWPLKGWHKRFFYLDKGILKYAKSQTDIEREKLHGCIDVGLSVMSVKKSSKCIDLDTEEHIYHLKVKSEEVFDEWVSKLRHHRMYRQNEIAMFPHEVNHFFSGSTITDSSSGVFDSISSRKRSSISKQNLFQTGSNVSFSCGGETRVPLWLQSSEDMEKCSKDLAHCHAYLVEMSQLLQSMDVLHRTYSAPAINAIQGGSFESPKKEKRSHRRWRSRAIGKDAKGTLQVPKPFSGPVRLHSSNPNLSTLDFGEEKNYSDGSETSSEFSKMQEDLCHIAHKVYFTLRSAFNIMSAEREKLKQLMEQDASSSPSAQVIGLKNALSSALAQNTDLKERLRRIHAESLLLDSPAVAKSGDNLAEENSRDENRALVHQLSNESRLSITDSLSEFFDAQEVLLSPSSSENEISDDDSYVSDISDNLSLDNLSNDLDNERQTLGPVLDSGREAKSRRRTCLPAPCPSSSNISLWNILRNNIGKDLSKVAMPVELNEPLNTLQRLCEELEYSELLDKAAQIPSPLERMVYVAAFAISAYASSYYRAGSKPFNPVLGETYECIREDKGFQFFSEQVSHHPPISACHAESRNFVFWQDVRWKNKFWGKSMEIVPIGTTHVTLPVFGDHFEWNKVTSCIHNILSGQRWIEHYGEIVIKNLHDDSCYCKVNFIKAKYWSTNAHEIEGTVFDRSGKAVHRLFGKWHESIYCGGGSSSACVWRANPMPKGYEQYYSFTQFALELNEMDPSSKSLLPPTDTRFRPDQRFLEEGNLEEAEIQKQRIEQLQRERRRVLEENHVEHQPRFFRKSDDDSWVSNGTYLELRKDLGFSKLDHPVLW [OSBPL3]”, the “solubility in G1/S (log2)” value in the data set with HeLa Kyoto [1] is -0.196. Moreover, the melting temperature worked out at 48.8 °C in the data set with HeLa Kyoto [2] (cell cycle stage: G1/S) and 48.7 °C with HeLa Kyoto [2] (cell cycle stage: mitosis). Also, the “solubility change mitosis (log2)” value with HeLa Kyoto [3] is -0.0655. In addition, the thermal stability score in the data set with HeLa Kyoto [4] (setting [5]) came out at 0.31; in the data set on HeLa Kyoto [4] (cell cycle stage: mitosis) it was 0.491.

The record behind these values is the supplement of paper PMC5998384.
